Results as given in PMC9365698 (2022).

How the values were obtained:
Experiment in all cases: SPR
[1] = biological target: JAG1 (human, UniProt P78504 34-1067, biotin on the biotin-acceptor site (enzymatic, co-transfected BirA))
[2] = biological target: the molecule itself
[3] = biological target: T1, PVR (human, UniProt P15151 21-343, biotin on the biotin-acceptor site (enzymatic, co-transfected BirA))
T1 chain: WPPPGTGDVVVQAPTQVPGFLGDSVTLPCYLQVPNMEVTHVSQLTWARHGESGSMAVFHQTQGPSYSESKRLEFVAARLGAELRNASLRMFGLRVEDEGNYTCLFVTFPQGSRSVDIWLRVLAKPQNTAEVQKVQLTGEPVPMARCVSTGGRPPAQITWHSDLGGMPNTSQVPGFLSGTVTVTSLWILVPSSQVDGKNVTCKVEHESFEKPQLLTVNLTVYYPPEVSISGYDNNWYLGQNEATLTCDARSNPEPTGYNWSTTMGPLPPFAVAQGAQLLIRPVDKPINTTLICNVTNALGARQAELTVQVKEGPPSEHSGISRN

[4] = biological target: T2, PI16 (Homo sapiens)
T2 chain: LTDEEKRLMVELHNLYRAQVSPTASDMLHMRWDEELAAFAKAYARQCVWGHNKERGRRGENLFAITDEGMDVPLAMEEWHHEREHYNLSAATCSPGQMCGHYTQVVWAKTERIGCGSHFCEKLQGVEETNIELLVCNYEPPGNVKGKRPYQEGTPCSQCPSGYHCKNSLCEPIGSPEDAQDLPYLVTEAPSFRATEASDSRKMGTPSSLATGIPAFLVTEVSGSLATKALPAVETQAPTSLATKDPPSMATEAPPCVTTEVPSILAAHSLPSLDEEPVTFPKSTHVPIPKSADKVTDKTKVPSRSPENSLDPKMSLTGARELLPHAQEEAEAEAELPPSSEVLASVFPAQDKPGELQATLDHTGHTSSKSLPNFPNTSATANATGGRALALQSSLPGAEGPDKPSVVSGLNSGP

[5] = biological target: T3, TNR16 (Homo sapiens)
T3 chain: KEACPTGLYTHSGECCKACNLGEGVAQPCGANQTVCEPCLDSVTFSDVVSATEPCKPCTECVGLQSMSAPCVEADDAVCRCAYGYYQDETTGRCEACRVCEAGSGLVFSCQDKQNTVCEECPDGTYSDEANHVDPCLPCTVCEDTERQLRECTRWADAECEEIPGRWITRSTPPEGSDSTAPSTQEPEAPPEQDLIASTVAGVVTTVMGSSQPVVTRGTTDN

[6] = biological target: FGFR2 (Homo sapiens)
[7] = biological target: T4, CDH2 (Homo sapiens)
T4 chain: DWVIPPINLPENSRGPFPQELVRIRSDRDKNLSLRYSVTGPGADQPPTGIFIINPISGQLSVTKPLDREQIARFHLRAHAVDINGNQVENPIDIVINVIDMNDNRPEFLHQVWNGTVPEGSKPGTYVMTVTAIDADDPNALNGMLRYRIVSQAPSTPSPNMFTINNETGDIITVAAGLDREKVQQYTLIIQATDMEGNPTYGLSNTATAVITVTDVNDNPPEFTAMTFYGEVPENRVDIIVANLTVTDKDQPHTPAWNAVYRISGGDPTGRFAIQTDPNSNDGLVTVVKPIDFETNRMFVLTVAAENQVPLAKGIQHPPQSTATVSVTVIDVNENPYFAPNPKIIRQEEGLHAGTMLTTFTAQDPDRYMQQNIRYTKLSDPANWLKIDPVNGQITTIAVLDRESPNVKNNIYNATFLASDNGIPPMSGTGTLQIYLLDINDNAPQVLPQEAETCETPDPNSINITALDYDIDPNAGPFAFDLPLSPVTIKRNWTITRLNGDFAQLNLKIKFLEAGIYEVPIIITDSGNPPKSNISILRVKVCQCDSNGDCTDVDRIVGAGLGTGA

[8] = biological target: T5, CNTN1 (human, UniProt Q12860 21-993, biotin on the biotin-acceptor site (enzymatic, co-transfected BirA))
T5 chain: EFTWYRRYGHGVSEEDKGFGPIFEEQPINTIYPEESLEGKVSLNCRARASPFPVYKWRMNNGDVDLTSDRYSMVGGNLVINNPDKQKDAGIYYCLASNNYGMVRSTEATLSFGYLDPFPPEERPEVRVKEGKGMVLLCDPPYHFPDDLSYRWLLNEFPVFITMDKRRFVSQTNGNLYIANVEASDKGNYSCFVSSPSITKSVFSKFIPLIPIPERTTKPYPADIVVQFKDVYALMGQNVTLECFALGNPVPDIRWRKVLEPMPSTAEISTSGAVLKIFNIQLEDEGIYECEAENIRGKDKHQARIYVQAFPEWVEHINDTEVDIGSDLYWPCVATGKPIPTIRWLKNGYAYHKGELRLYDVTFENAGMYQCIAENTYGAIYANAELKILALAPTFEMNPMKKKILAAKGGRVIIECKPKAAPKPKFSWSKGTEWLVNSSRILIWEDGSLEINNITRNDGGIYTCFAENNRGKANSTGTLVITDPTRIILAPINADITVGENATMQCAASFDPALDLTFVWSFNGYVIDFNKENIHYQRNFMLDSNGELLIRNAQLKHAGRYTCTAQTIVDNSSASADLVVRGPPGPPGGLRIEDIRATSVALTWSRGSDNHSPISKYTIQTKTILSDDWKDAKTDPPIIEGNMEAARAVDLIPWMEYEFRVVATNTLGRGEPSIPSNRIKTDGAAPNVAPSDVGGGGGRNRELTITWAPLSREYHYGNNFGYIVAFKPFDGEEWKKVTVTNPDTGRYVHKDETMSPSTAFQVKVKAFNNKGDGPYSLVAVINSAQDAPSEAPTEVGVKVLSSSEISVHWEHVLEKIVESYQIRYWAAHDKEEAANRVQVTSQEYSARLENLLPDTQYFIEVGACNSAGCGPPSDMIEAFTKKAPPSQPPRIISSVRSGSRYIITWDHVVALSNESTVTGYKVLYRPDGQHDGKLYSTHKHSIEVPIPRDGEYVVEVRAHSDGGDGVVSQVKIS

B1: VASN (receptor)
chain: CPSGCQCSQPQTVFCTARQGTTVPRDVPPDTVGLYVFENGITMLDAGSFAGLPGLQLLDLSQNQIASLPSGVFQPLANLSNLDLTANRLHEITNETFRGLRRLERLYLGKNRIRHIQPGAFDTLDRLLELKLQDNELRALPPLRLPRLLLLDLSHNSLLALEPGILDTANVEALRLAGLGLQQLDEGLFSRLRNLHDLDVSDNQLERVPPVIRGLRGLTRLRLAGNTRIAQLRPEDLAGLAALQELDVSNLSLQALPGDLSGLFPRLRLLAAARNPFNCVCPLSWFGPWVRESHVTLASPEETRCHFPPKNAGRLLLELDYADFGCPATTTTATVPTTRPVVREPTALSSSLAPTWLSPTEPATEAPSPPSTAPPTVGPVPQPQDCPPSTCLNGGTCHLGTRHHLACLCPEGFTGLYCESQMGQGTRPSPTPVTPRPPRSLTLGIEPVSPTSLRVGLQRYLQGSSVQLRSLRLTYRNLSGPDKRLVTLRLPASLAEYTVTQLRPNATYSVCVMPLGPGRVPEGEEACGEAHTPPAVHSNHAPVTQAREGNLP
modifications: biotin on the biotin-acceptor site (enzymatic, co-transfected BirA)
Work on B1 yielded a koff [1] of roughly 0.1 s⁻¹.

B2: MPZL1 (protein)
chain: SALEVYTPKEIFVANGTQGKLTCKFKSTSTTGGLTSVSWSFQPEGADTTVSFFHYSQGQVYLGNYPPFKDRISWAGDLDKKDASINIENMQFIHNGTYICDVKNPPDIVVQPGHIRLYVVEKENLPV
In the case of B2, the koff [2] is reported as roughly 0.6 s⁻¹.

B3: KIR2DL5A (receptor)
chain: HEGGQDKPLLSAWPSAVVPRGGHVTLLCRSRLGFTIFSLYKEDGVPVPELYNKIFWKSILMGPVTPAHAGTYRCRGSHPRSPIEWSAPSNPLVIVVTGLFGKPSLSAQPGPTVRTGENVTLSCSSRSSFDMYHLSREGRAHEPRLPAVPSVNGTFQADFPLGPATHGGTYTCFGSLHDSPYEWSDPSDPLLVSVTGNSSSSSSSPTEPSSKTGIRRH
modifications: biotin on the biotin-acceptor site (enzymatic, co-transfected BirA)
B3 showed a koff [3] of roughly 0.9 s⁻¹.

B4: TNR21 (protein)
chain: QPEQKASNLIGTYRHVDRATGQVLTCDKCPAGTYVSEHCTNTSLRVCSSCPVGTFTRHENGIEKCHDCSQPCPWPMIEKLPCAALTDRECTCPPGMFQSNATCAPHTVCPVGWGVRKKGTETEDVRCKQCARGTFSDVPSSVMKCKAYTDCLSQNLVVIKPGTKETDNVCGTLPSFSSSTSPSPGTAIFPRPEHMETHEVPSSTYVPKGMNSTESNSSASVRPKVLSSIQEGTVPDNTSSARGKEDVNKTLPNLQVVNHQQGPHHRHILKLLPSMEATGGEKSSTPIKGPKRGHPRQNLHKHFDINEH
B4 showed a koff [4] of roughly 2 s⁻¹.

B5: CD80 (protein)
chain: VIHVTKEVKEVATLSCGHNVSVEELAQTRIYWQKEKKMVLTMMSGDMNIWPEYKNRTIFDITNNLSIVILALRPSDEGTYECVVLKYEKDAFKREHLAEVTLSVKADFPTPSISDFEIPTSNIRRIICSTSGGFPEPHLSWLENGEELNAINTTVSQDPETELYAVSSKLDFNMTTNHSFMCLIKYGHLRVNQTFNWNTTKQEHFPDN
Binder B5 has a koff [5] of roughly 1.4 s⁻¹.

B6: FCER2 (protein)
chain: DTTQSLKQLEERAARNVSQVSKNLESHHGDQMAQKSQSTQISQELEELRAEQQRLKSQDLELSWNLNGLQADLSSFKSQELNERNEASDLLERLREEVTKLRMELQVSSGFVCNTCPEKWINFQRKCYYFGKGTKQWVHARYACDDMEGQLVSIHSPEEQDFLTKHASHTGSWIGLRNLDLKGEFIWVDGSHVDYSNWAPGEPTSRSQGEDCVMMRGSGRWNDAFCDRKLGAWVCDRLATCTPPASEGSAESMGPDSRPDPDGRLPTPSAPLHS
Binder B6 has a koff [6] of roughly 0.01 s⁻¹.

B7: FCER2 (protein)
chain: B6 chain
modifications: propeptide assumed removed
Binder B7 has a koff [7] of roughly 0.6 s⁻¹.

B8: NRCAM (protein)
chain: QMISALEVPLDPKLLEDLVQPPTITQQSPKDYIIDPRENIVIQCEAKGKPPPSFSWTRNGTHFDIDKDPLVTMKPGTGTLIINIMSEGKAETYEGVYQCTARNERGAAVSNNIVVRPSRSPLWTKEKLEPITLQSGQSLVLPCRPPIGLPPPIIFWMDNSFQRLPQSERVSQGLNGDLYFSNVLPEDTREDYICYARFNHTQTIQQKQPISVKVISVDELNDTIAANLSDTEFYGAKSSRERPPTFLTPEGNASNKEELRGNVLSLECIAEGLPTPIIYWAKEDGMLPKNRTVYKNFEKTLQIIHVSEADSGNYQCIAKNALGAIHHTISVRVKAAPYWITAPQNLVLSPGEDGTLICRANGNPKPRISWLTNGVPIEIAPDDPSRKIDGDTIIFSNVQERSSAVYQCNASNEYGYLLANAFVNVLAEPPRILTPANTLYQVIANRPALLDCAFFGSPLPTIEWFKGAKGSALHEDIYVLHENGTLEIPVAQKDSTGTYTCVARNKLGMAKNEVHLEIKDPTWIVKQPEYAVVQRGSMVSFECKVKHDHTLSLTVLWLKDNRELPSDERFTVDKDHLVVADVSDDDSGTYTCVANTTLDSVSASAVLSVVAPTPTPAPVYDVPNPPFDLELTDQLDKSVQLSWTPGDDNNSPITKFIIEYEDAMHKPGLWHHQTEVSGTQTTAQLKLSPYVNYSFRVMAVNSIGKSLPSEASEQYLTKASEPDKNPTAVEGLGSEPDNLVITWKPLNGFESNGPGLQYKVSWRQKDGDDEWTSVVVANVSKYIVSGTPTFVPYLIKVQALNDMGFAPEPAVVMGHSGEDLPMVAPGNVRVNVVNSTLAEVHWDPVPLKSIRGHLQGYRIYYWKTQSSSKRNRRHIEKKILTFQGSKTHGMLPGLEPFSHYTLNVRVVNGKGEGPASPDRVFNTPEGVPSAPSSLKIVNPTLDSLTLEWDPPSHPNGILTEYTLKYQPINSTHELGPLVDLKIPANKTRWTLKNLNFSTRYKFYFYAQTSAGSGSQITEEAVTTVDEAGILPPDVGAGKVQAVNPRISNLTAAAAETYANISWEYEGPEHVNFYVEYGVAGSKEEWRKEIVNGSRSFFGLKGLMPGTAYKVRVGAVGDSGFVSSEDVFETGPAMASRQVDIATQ
Binder B8 has a koff [8] of roughly 0.7 s⁻¹.
